# Results: publication PMC10287982
# What was measured:
# [1] = molecular target: 70S ribosome on biotinylated mRNA with the UAA stop codon in the A site (no release factor bound) (E. coli) (UniProt P0AG67); experiment: single-molecule fluorescence in zero-mode waveguides (factor occupancy with intersubunit FRET); ribosome immobilised through biotinylated MF-UAA mRNA on Neutravidin; Cy5.5-RF1 or Cy5.5-RF2 with 0-200 nM dark RF3, RRF, EF-G, 4 mM GTP; Tris-based polymix buffer pH 7.5; 20°C
# [2] = molecular target: 70S ribosome with bound wild-type (dark) RF3, rotated post-termination state (E. coli MG1655 K12 | E. coli) (UniProt P0A7I4); experiment: as above
# [3] = molecular target: 70S ribosome on biotinylated mRNA with the UAA stop codon in the A site (no release factor bound) (E. coli) (UniProt P0AG67); experiment: single-molecule fluorescence in zero-mode waveguides (factor occupancy with intersubunit FRET); as a4 (MF-UAA mRNA, Cy5.5-RF1, Cy5-RF3, GTP) but at 12°C
# [4] = molecular target: post-termination RF1-70S complex (Cy5.5-RF1 bound to the non-rotated 70S ribosome) (not stated | E. coli) (UniProt P0A7I0); experiment: single-molecule fluorescence in zero-mode waveguides (factor occupancy with intersubunit FRET); Cy5-RF3 occupancy on the Cy5.5-RF1-bound non-rotated ribosome with 50% GDP (1:1 ratio of GTP:GDP); triple exponential fit
# [5] = molecular target: post-termination RF1-70S complex (Cy5.5-RF1 bound to the non-rotated 70S ribosome) (not stated | E. coli) (UniProt P0A7I0); experiment: single-molecule fluorescence in zero-mode waveguides (factor occupancy with intersubunit FRET); pre-elongated immobilised 70S with the stop codon in the A site; 75 nM Cy5-RF3, 20 nM Cy5.5-RF1, 4 mM GDP, polymix buffer, 20°C
# [6] = molecular target: 70S ribosome on biotinylated mRNA with the UAA stop codon in the A site (no release factor bound) (E. coli) (UniProt P0AG67); experiment: single-molecule fluorescence in zero-mode waveguides (factor occupancy with intersubunit FRET); ribosome immobilised through biotinylated mRNA; Cy5.5-RF1 and Cy5-RF3 tracked together, 4 mM GTP, Tris-based polymix buffer pH 7.5, 20°C
# [7] = molecular target: post-termination RF1-70S complex (Cy5.5-RF1 bound to the non-rotated 70S ribosome) (not stated | E. coli) (UniProt P0A7I0); experiment: as above
# [8] = molecular target: 70S ribosome on biotinylated mRNA with the UAA stop codon in the A site (no release factor bound) (E. coli) (UniProt P0AG67); experiment: single-molecule fluorescence in zero-mode waveguides (factor occupancy with intersubunit FRET); pre-elongated immobilised 70S with the stop codon in the A site; 75 nM Cy5-RF3, 20 nM Cy5.5-RF1, 4 mM GDPCP, polymix buffer, 20°C, no RRF or EF-G
# [9] = molecular target: post-termination RF1-70S complex (Cy5.5-RF1 bound to the non-rotated 70S ribosome) (not stated | E. coli) (UniProt P0A7I0); experiment: as above
# [10] = molecular target: 70S ribosome on biotinylated mRNA with the UAA stop codon in the A site (no release factor bound) (E. coli) (UniProt P0AG67); experiment: single-molecule fluorescence in zero-mode waveguides (factor occupancy with intersubunit FRET); as a1 with Cy5.5-RF1 and dark RF3, 4 mM GTP, but at 30°C
# [11] = molecular target: 70S ribosome with bound wild-type (dark) RF3, rotated post-termination state (E. coli MG1655 K12 | E. coli) (UniProt P0A7I4); experiment: as above
# [12] = molecular target: 70S ribosome with bound Cy5-RF3, rotated post-termination state (E. coli MG1655 K12 | E. coli) (UniProt P0A7I4); experiment: single-molecule fluorescence in zero-mode waveguides (factor occupancy with intersubunit FRET); as a4 (MF-UAA mRNA, Cy5.5-RF1, Cy5-RF3, GTP) but at 12°C
# [13] = molecular target: 70S ribosome with bound Cy5-RF3, rotated post-termination state (E. coli MG1655 K12 | E. coli) (UniProt P0A7I4); experiment: single-molecule fluorescence in zero-mode waveguides (factor occupancy with intersubunit FRET); ribosome immobilised through biotinylated mRNA; Cy5.5-RF1 and Cy5-RF3 tracked together, 4 mM GTP, Tris-based polymix buffer pH 7.5, 20°C
# [14] = molecular target: 70S ribosome on biotinylated mRNA with the UAA stop codon in the A site (no release factor bound) (E. coli) (UniProt P0AG67); experiment: single-molecule fluorescence in zero-mode waveguides (factor occupancy with intersubunit FRET); Cy5.5-RF1 and Cy5-RF3 with GTP and the antimicrobial peptide Api137 added; occupancy limited by Cy5.5 photobleaching and movie time (6 min)
# [15] = molecular target: 70S ribosome with bound Cy5-RF3, rotated post-termination state (E. coli MG1655 K12 | E. coli) (UniProt P0A7I4); experiment: single-molecule fluorescence in zero-mode waveguides (factor occupancy with intersubunit FRET); pre-elongated immobilised 70S with the stop codon in the A site; 75 nM Cy5-RF3, 20 nM Cy5.5-RF1, 4 mM GDPCP, polymix buffer, 20°C, no RRF or EF-G
# [16] = molecular target: 70S ribosome on biotinylated mRNA with the UAA stop codon in the A site (no release factor bound) (E. coli) (UniProt P0AG67); experiment: single-molecule fluorescence in zero-mode waveguides (factor occupancy with intersubunit FRET); Cy5.5-RF1 in the absence of RRF, with and without RF3; first-bound and rebound RF1 events on the immobilised ribosome (Supplementary Figure S2); temperature not given
# [17] = molecular target: 70S ribosome with bound wild-type (dark) RF3, rotated post-termination state (E. coli MG1655 K12 | E. coli) (UniProt P0A7I4); experiment: as above
substance,measurement,setting,value
Cy5.5-labeled RF2 (from UniProt P07012 1-365) (natural protein),kiAR- (spontaneous and simultaneous dissociation and ribosome rotation from the post-termination ribosome),[1],0.04 s⁻¹
same,mean dwell time on the terminating ribosome in the absence of RF3 (tau 2BD-),[1],38 s
same,koff,[2],3.5 s⁻¹
Cy5-RF3 (ybbR-tagged RF3 labelled with Cy5-CoA) (from UniProt P0A7I4 1-529) (natural protein),fold slow-down of dissociation at 12°C against 20°C,[3],21 fold
same,dissociation rate of the slowest phase of a triple exponential,[4],0.3 s⁻¹
same,"k3off1 (sampling mode, fast phase of a double exponential)",[5],4.6 s⁻¹
same,"k3off2 (sampling mode, slow phase of a double exponential)",[5],0.25 s⁻¹
same,kon,[5],2e+06 M⁻¹ s⁻¹
same,koff,[6],4 s⁻¹
same,"k3off1 (sampling mode, fast phase of a double exponential)",[7],1.3 s⁻¹
same,"k3off2 (sampling mode, slow phase of a double exponential)",[7],0.3 s⁻¹
same,kon,[7],2.3e+06 M⁻¹ s⁻¹
same,koff,[8],0.0164 s⁻¹
same,"k3off1 (sampling mode, fast phase of a double exponential)",[9],1.1 s⁻¹
same,"k3off2 (sampling mode, slow phase of a double exponential)",[9],0.18 s⁻¹
same,kon,[9],2e+06 M⁻¹ s⁻¹
Cy5.5-labeled RF1 (from UniProt P0A7I0 1-360) (natural protein),kiAR- (spontaneous and simultaneous dissociation and ribosome rotation from the post-termination ribosome),[10],0.072 s⁻¹
same,koff,[11],2.5 s⁻¹
same,fold slow-down of dissociation at 12°C against 20°C,[12],2.6 fold
same,koff,[13],0.69 s⁻¹
same,occupancy time with Api137 (photobleaching and movie-time limit),[14],300 s
same,koff,[15],0.14 s⁻¹
same,kiAR- (spontaneous and simultaneous dissociation and ribosome rotation from the post-termination ribosome),[1],0.027 s⁻¹
same,kon,[1],2.1e+07 M⁻¹ s⁻¹
same,mean dwell time on the terminating ribosome in the absence of RF3 (tau 1BD-),[1],66 s
same,k1RD+ (single RF1 binding event in the presence of RRF),[2],0.87 s⁻¹
same,koff,[2],0.76 s⁻¹
same,"kiAR- (first-bound ribosomes, no RRF)",[16],0.04 s⁻¹
same,"kiAR- (rebound ribosomes, no RRF)",[16],0.08 s⁻¹
same,"k1RD+ (first-bound RF1, no RRF)",[17],0.77 s⁻¹
same,"k1RD+ (rebound RF1, no RRF)",[17],1 s⁻¹
